Laboratory results as given in paper PMC5650612, “Enhancing Tropane Alkaloid Production Based on the Functional Identification of Tropine-Forming Reductase in Scopolia lurida, a Tibetan Medicinal Plant” (Frontiers in Plant Science, 2017).

Test system: CN1[C@@H]2CC[C@H]1CC(=O)C2
Test: purified protein
Conditions: pH 6.4

## SlTRI (Anisodus luridus)
  Km: 40.90 ± 7.059 mM
  Vmax: 1.95 µmol/min/mg
  kcat/Km: 24 M⁻¹ s⁻¹
